The Kd is the concentration at which binding is half-saturated.

Drawing on PMC6796863, “Structural insight into human N6amt1–Trm112 complex functioning as a protein methyltransferase” (Cell Discovery, 2019), this text covers Kd for one molecule.

The target in this experiment is T1, human N6amt1–Trm112 complex (human, UniProt Q9Y5N5 1-214; Q9UI30 1-125).
T1 construct: human N6amt1 (HemK2), full length, 214 amino acids; human Trm112, full length; SAM co-purifies with the complex; before the ITC titration the complex was incubated with SAH at a molar ratio of 1:2; also called the protein complex; source: E. coli BL21(DE3), co-expressed from pET-Duet, purified (Ni-NTA, gel filtration)
T1 sequence (looked up) 1: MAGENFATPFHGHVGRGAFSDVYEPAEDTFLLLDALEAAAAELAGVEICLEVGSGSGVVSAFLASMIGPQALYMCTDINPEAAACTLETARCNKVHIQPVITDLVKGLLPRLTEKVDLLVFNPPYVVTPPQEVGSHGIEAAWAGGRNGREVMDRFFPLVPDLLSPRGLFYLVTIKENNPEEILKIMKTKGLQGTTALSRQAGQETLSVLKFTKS
T1 sequence (looked up) 2: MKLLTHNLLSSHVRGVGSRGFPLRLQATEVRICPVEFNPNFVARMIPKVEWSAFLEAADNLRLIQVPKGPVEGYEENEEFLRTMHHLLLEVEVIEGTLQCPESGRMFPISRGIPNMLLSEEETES
Nature of the experiment: ITC; 2 mM peptide injected into 0.1 mM N6amt1–Trm112 in the cell, 20 °C; complex incubated beforehand with SAH at a molar ratio of 1:2; single binding site model. Particulars: both partners purified. Background: In ITC the heat of successive injections is recorded.

B1: Gln185-centered 15-residue peptide of human eRF1 (GGQ peptide) (peptide)
peptide: KKHGRGGQSALRFAR
notes: human eRF1, 15-residue peptide centered at Gln185; also called 15-residue GGQ peptide of eRF1
Regarding B1, the Kd was found to be 490 ± 150 µM.
